Laboratory results from US20140087995A1 (published 2014).
Numbered stars: 1 amine (or outer) side, 2 acyl side, 3 side chain; on linkers, the order of the positions; unused ones are H or OH. Bridge positions count the residues as written; N and C are the ends. Side chains are listed from the residue outwards. Ends that are not written are not given here. * marks the point of attachment. C20 diacid = O=C(O)CCCCCCCCCCCCCCCCCCC(=O)*; γGlu = O=C(O)[C@H](CCC(=O)[*:2])N[*:1]; AEEA = NCCOCCOCC(=O)O

T1: human calcitonin receptor (human, UniProt P30988 25-474)
T1 construct: whole, on cells; Assay used cell membranes of the transfected BHK cells; also called hCTR; hCT
T1 sequence (looked up): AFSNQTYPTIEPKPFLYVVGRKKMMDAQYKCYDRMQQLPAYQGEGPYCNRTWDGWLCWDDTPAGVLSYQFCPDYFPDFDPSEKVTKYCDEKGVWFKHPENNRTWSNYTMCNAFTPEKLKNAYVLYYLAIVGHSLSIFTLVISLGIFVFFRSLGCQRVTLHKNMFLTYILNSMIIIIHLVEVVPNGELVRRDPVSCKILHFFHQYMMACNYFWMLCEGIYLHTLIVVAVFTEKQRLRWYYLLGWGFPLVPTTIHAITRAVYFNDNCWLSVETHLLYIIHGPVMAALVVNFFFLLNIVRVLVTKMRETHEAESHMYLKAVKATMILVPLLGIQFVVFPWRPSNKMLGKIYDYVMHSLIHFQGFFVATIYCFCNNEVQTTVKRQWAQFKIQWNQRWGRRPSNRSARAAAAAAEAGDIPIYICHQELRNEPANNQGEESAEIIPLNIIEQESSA


Key:
[1] = target: T1, human calcitonin receptor; assay: SPA radioligand competition (125I-calcitonin), membranes of BHK cells with human calcitonin receptor
Procedure, shortened: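 BHK hCTR membranes 35 ng/μL + SPA beads 0.05 mg/well; buffer 50 mM Hepes pH 7.4, 1 mM CaCl2, 5 mM MgCl₂, 0.1% OA, 0.02% Tween20. 120 min, 25° C., shaking. Scintillation count; IC50 by one-site binding competition.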

[2] = target: T1, human calcitonin receptor; assay: ratio IC50 hCTR / IC50 hAmylin-R of the two SPA competition assays; reference: human amylin receptor
Procedure: The resulting pellet was resuspended, homogenized and centrifuged (20.000 rpm, 15 min) in a buffer containing 20 mM Na-HEPES and 0.1 mM EDTA (pH 7.4, buffer 2). The resulting pellet was resuspended in buffer 2 and protein concentration was measured (BCA protein Assay, Pierce). The homogenate was kept cold during the whole procedure. The membranes were kept at −80° C. until use. The assay was performed in a 384 well Optiplate (PerkinElmer) in a total volume of 40 ul. Membranes were mixed with SPA beads. Final concentration of membranes 35 ng/μL final and SPA beads was 0.05 mg/well. Test-compounds were dissolved in DMSO and further diluted in assay buffer (50 mM Hepes, pH 7.4, 1 mM CaCl2, 5 mM MgCl₂, 0.1% OA and 0.02% Tween20). […] The final mixture was incubated with shaking at 400 rpm for 120 min at 25° C. prior to centrifugation (1500 rpm, 10 min). Samples were analyzed on TopCounter™ (Packard). The IC₅₀ was calculated using (one site binding competition analysis) GraphPad Prism5 as a measure of receptor affinity.
Membranes were prepared in the following way; the cells were rinsed with PBS and incubated with Versene for approximately 5 min before harvesting. The cells were flushed with PBS and the cell-suspension was centrifuged for 5 min at 1000 rpm. Cells were homogenized (Ultrathurrax) in a buffer containing 20 mM Na-HEPES and 10 mM EDTA (pH 7.4) and centrifuged at 20.000 rpm for 15 min. The resulting pellet was resuspended, homogenized and centrifuged (20.000 rpm, 15 min) in a buffer containing 20 mM Na-HEPES and 0.1 mM EDTA (pH 7.4, buffer 2). The resulting pellet was resuspended in buffer 2 and protein concentration was measured (BCA protein Assay, Pierce). The homogenate was kept cold during the whole procedure. The membranes were kept at −80° C. until use. Assay was performed in a 384 well Optiplate (PerkinElmer) in a total volume of 40 ul. Membranes were mixed with SPA beads.

Row | Binder | IC50 [1] | Ratio hCT/hAmylin binding [2]
1 | {C20 diacid-γGlu}-KCNTATCATQRLAEFLRHSSPNFGAIPSSTPVGSNTY-NH2 (disulfide 2-7; SMILES CC[C@H](C)[C@H](NC(=O)[C@H](C)NC(=O)CNC(=O)[C@H](Cc1ccccc1)NC(=O)[C@H](CC(N)=O)NC(=O)[C@@H]1CCCN1C(=O)[C@H](CO)NC(=O)[C@H](CO)NC(=O)[C@H](Cc1c[nH]cn1)NC(=O)[C@H](CCCNC(=N)N)NC(=O)[C@H](CC(C)C)NC(=O)[C@H](Cc1ccccc1)NC(=O)[C@H](CCC(=O)O)NC(=O)[C@H](C)NC(=O)[C@H](CC(C)C)NC(=O)[C@H](CCCNC(=N)N)NC(=O)[C@H](CCC(N)=O)NC(=O)[C@@H](NC(=O)[C@H](C)NC(=O)[C@@H]1CSSC[C@H](NC(=O)[C@H](CCCCN)NC(=O)CC[C@H](NC(=O)CCCCCCCCCCCCCCCCCCC(=O)O)C(=O)O)C(=O)N[C@@H](CC(N)=O)C(=O)N[C@@H]([C@@H](C)O)C(=O)N[C@@H](C)C(=O)N[C@@H]([C@@H](C)O)C(=O)N1)[C@@H](C)O)C(=O)N1CCC[C@H]1C(=O)N[C@@H](CO)C(=O)N[C@@H](CO)C(=O)N[C@H](C(=O)N1CCC[C@H]1C(=O)N[C@H](C(=O)NCC(=O)N[C@@H](CO)C(=O)N[C@@H](CC(N)=O)C(=O)N[C@H](C(=O)N[C@@H](Cc1ccc(O)cc1)C(N)=O)[C@@H](C)O)C(C)C)[C@@H](C)O, Synthetic analogue; also called compound 31) | 3.26 nM | 16
2 | {C20 diacid-γGlu}-KCNTATCATQRLAEFLRHSSPNFGAIPSSTNVGSETY-NH2 (disulfide 2-7; SMILES CC[C@H](C)[C@H](NC(=O)[C@H](C)NC(=O)CNC(=O)[C@H](Cc1ccccc1)NC(=O)[C@H](CC(N)=O)NC(=O)[C@@H]1CCCN1C(=O)[C@H](CO)NC(=O)[C@H](CO)NC(=O)[C@H](Cc1c[nH]cn1)NC(=O)[C@H](CCCNC(=N)N)NC(=O)[C@H](CC(C)C)NC(=O)[C@H](Cc1ccccc1)NC(=O)[C@H](CCC(=O)O)NC(=O)[C@H](C)NC(=O)[C@H](CC(C)C)NC(=O)[C@H](CCCNC(=N)N)NC(=O)[C@H](CCC(N)=O)NC(=O)[C@@H](NC(=O)[C@H](C)NC(=O)[C@@H]1CSSC[C@H](NC(=O)[C@H](CCCCN)NC(=O)CC[C@H](NC(=O)CCCCCCCCCCCCCCCCCCC(=O)O)C(=O)O)C(=O)N[C@@H](CC(N)=O)C(=O)N[C@@H]([C@@H](C)O)C(=O)N[C@@H](C)C(=O)N[C@@H]([C@@H](C)O)C(=O)N1)[C@@H](C)O)C(=O)N1CCC[C@H]1C(=O)N[C@@H](CO)C(=O)N[C@@H](CO)C(=O)N[C@H](C(=O)N[C@@H](CC(N)=O)C(=O)N[C@H](C(=O)NCC(=O)N[C@@H](CO)C(=O)N[C@@H](CCC(=O)O)C(=O)N[C@H](C(=O)N[C@@H](Cc1ccc(O)cc1)C(N)=O)[C@@H](C)O)C(C)C)[C@@H](C)O, Synthetic analogue; also called compound 22) | 9.73 nM | 12.3
3 | {C20 diacid-γGlu}-KCNTATCATQRLAEFLRHSSPNFGAIPSSTNVGPNTY-NH2 (disulfide 2-7; SMILES CC[C@H](C)[C@H](NC(=O)[C@H](C)NC(=O)CNC(=O)[C@H](Cc1ccccc1)NC(=O)[C@H](CC(N)=O)NC(=O)[C@@H]1CCCN1C(=O)[C@H](CO)NC(=O)[C@H](CO)NC(=O)[C@H](Cc1c[nH]cn1)NC(=O)[C@H](CCCNC(=N)N)NC(=O)[C@H](CC(C)C)NC(=O)[C@H](Cc1ccccc1)NC(=O)[C@H](CCC(=O)O)NC(=O)[C@H](C)NC(=O)[C@H](CC(C)C)NC(=O)[C@H](CCCNC(=N)N)NC(=O)[C@H](CCC(N)=O)NC(=O)[C@@H](NC(=O)[C@H](C)NC(=O)[C@@H]1CSSC[C@H](NC(=O)[C@H](CCCCN)NC(=O)CC[C@H](NC(=O)CCCCCCCCCCCCCCCCCCC(=O)O)C(=O)O)C(=O)N[C@@H](CC(N)=O)C(=O)N[C@@H]([C@@H](C)O)C(=O)N[C@@H](C)C(=O)N[C@@H]([C@@H](C)O)C(=O)N1)[C@@H](C)O)C(=O)N1CCC[C@H]1C(=O)N[C@@H](CO)C(=O)N[C@@H](CO)C(=O)N[C@H](C(=O)N[C@@H](CC(N)=O)C(=O)N[C@H](C(=O)NCC(=O)N1CCC[C@H]1C(=O)N[C@@H](CC(N)=O)C(=O)N[C@H](C(=O)N[C@@H](Cc1ccc(O)cc1)C(N)=O)[C@@H](C)O)C(C)C)[C@@H](C)O, Synthetic analogue; also called compound 32) | 1.09 nM | 10.9

Other lines, results leading:

Row | IC50 [1] | Ratio hCT/hAmylin binding [2] | Binder
4 | 21.6 nM | 23.6 | {C20 diacid-γGlu}-KCNTATCATQRLAHFLRHSSPNFGAIPSSTNVGSETY-NH2 (disulfide 2-7; SMILES CC[C@H](C)[C@H](NC(=O)[C@H](C)NC(=O)CNC(=O)[C@H](Cc1ccccc1)NC(=O)[C@H](CC(N)=O)NC(=O)[C@@H]1CCCN1C(=O)[C@H](CO)NC(=O)[C@H](CO)NC(=O)[C@H](Cc1c[nH]cn1)NC(=O)[C@H](CCCNC(=N)N)NC(=O)[C@H](CC(C)C)NC(=O)[C@H](Cc1ccccc1)NC(=O)[C@H](Cc1c[nH]cn1)NC(=O)[C@H](C)NC(=O)[C@H](CC(C)C)NC(=O)[C@H](CCCNC(=N)N)NC(=O)[C@H](CCC(N)=O)NC(=O)[C@@H](NC(=O)[C@H](C)NC(=O)[C@@H]1CSSC[C@H](NC(=O)[C@H](CCCCN)NC(=O)CC[C@H](NC(=O)CCCCCCCCCCCCCCCCCCC(=O)O)C(=O)O)C(=O)N[C@@H](CC(N)=O)C(=O)N[C@@H]([C@@H](C)O)C(=O)N[C@@H](C)C(=O)N[C@@H]([C@@H](C)O)C(=O)N1)[C@@H](C)O)C(=O)N1CCC[C@H]1C(=O)N[C@@H](CO)C(=O)N[C@@H](CO)C(=O)N[C@H](C(=O)N[C@@H](CC(N)=O)C(=O)N[C@H](C(=O)NCC(=O)N[C@@H](CO)C(=O)N[C@@H](CCC(=O)O)C(=O)N[C@H](C(=O)N[C@@H](Cc1ccc(O)cc1)C(N)=O)[C@@H](C)O)C(C)C)[C@@H](C)O, Synthetic analogue; also called compound 30)
5 | 43.4 nM | 56.5 | K([AEEA-AEEA-γGlu-C20 diacid])CNTATCATQRLANFLRHSSPNFGAIPSSTNVGSETY-NH2 (disulfide 2-7; N-terminus assumed; SMILES CC[C@H](C)[C@H](NC(=O)[C@H](C)NC(=O)CNC(=O)[C@H](Cc1ccccc1)NC(=O)[C@H](CC(N)=O)NC(=O)[C@@H]1CCCN1C(=O)[C@H](CO)NC(=O)[C@H](CO)NC(=O)[C@H](Cc1c[nH]cn1)NC(=O)[C@H](CCCNC(=N)N)NC(=O)[C@H](CC(C)C)NC(=O)[C@H](Cc1ccccc1)NC(=O)[C@H](CC(N)=O)NC(=O)[C@H](C)NC(=O)[C@H](CC(C)C)NC(=O)[C@H](CCCNC(=N)N)NC(=O)[C@H](CCC(N)=O)NC(=O)[C@@H](NC(=O)[C@H](C)NC(=O)[C@@H]1CSSC[C@H](NC(=O)[C@@H](N)CCCCNC(=O)COCCOCCNC(=O)COCCOCCNC(=O)CC[C@H](NC(=O)CCCCCCCCCCCCCCCCCCC(=O)O)C(=O)O)C(=O)N[C@@H](CC(N)=O)C(=O)N[C@@H]([C@@H](C)O)C(=O)N[C@@H](C)C(=O)N[C@@H]([C@@H](C)O)C(=O)N1)[C@@H](C)O)C(=O)N1CCC[C@H]1C(=O)N[C@@H](CO)C(=O)N[C@@H](CO)C(=O)N[C@H](C(=O)N[C@@H](CC(N)=O)C(=O)N[C@H](C(=O)NCC(=O)N[C@@H](CO)C(=O)N[C@@H](CCC(=O)O)C(=O)N[C@H](C(=O)N[C@@H](Cc1ccc(O)cc1)C(N)=O)[C@@H](C)O)C(C)C)[C@@H](C)O, Synthetic analogue; also called compound 25)
